Source: US20050244894A1

Biological target: procaspase-3 (endogenous, in cytosolic extract of 293T cells) (human) (UniProt P42574)
Assay: cell-based or functional assay

procaspase-3 (endogenous, in cytosolic extract of 293T cells) (human), sequence (P42574 whole entry): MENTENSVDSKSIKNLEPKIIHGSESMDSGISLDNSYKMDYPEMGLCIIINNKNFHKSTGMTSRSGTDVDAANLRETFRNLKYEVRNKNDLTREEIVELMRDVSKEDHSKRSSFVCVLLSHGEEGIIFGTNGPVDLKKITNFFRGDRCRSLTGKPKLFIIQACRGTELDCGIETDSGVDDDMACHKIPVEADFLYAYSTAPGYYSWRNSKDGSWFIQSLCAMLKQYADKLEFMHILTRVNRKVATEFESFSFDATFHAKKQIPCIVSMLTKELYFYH

## granzyme B (enzyme)
  DEVDase activity of cytosolic extract of NK1R-transfected 293T cells: 7 fold
